The series concerns the molecule itself. Briefly: crystal structure.

The values below come from PMC3914025 (Nature, 2013).

B1: NapA from Thermus thermophilus, triple cysteine mutant (Met20, Val166, Val326 to cysteine) (natural protein)
chain: MHGAEHLLEIFYLLLAAQVCAFIFKRLNQPVVIGEVLAGVLVGPALLGLVHEGEILEFLAELGAVFLLFMVGLETRLKDILAVGKEAFLVAVLGVALPFLGGYLYGLEIGFETLPALFLGTALVATSVGITARVLQELGVLSRPYSRIILGAAVIDDVLGLIVLACVNGVAETGQVEVGAITRLIVLSVVFVGLAVFLSTLIARLPLERLPVGSPLGFALALGVGMAALAASIGLAPIVGAFLGGMLLSEVREKYRLEEPIFAIESFLAPIFFAMVGVRLELSALASPVVLVAGTVVTVIAILGKVLGGFLGALTQGVRSALTVGCGMAPRGEVGLIVAALGLKAGAVNEEEYAIVLFMVVFTTLFAPFALKPLIAWTERERAAKEGSENLYFQ
As for B1, the binding result is “binds”.
